Patent US9199234

Columns and labels:
[1] = biological target: Chorionic Gonadotropin (CG) (UniProt P01215); test: FRET quenching titration in solution: BHQ-10-labelled antibody, Alexa-Fluor 488-labelled antigen
[2] = biological target: Follicle Stimulating Hormone (FSH) (UniProt P01215); test: as above
Luteinizing Hormone (LH) [3] = biological target: Luteinizing Hormone (LH) (UniProt P01215); test: as above
[4] = biological target: Thyroid Stimulating Hormone (TSH) (UniProt P01215); test: as above
[5] = biological target: Thyroid Stimulating Hormone (TSH) (UniProt P01215); test: i-STAT sandwich immunoassay, recombinant TSH; row antibody on capture beads; detection ALP conjugate: M4
[6] = biological target: Thyroid Stimulating Hormone (TSH) (UniProt P01215); test: i-STAT sandwich immunoassay, recombinant TSH; row antibody on capture beads; detection ALP conjugate: 414B
[7] = biological target: Thyroid Stimulating Hormone (TSH) (UniProt P01215); test: i-STAT sandwich immunoassay, recombinant TSH; row antibody on capture beads; detection ALP conjugate: 5409
[8] = biological target: Thyroid Stimulating Hormone (TSH) (UniProt P01215); test: i-STAT sandwich immunoassay, recombinant TSH; row antibody on capture beads; detection ALP conjugate: ME130
[9] = biological target: Thyroid Stimulating Hormone (TSH) (UniProt P01215); test: i-STAT sandwich immunoassay, recombinant TSH; row antibody on capture beads; detection ALP conjugate: TSH Ab 544
[10] = biological target: Chorionic Gonadotropin (CG) (UniProt P01215); test: i-STAT sandwich, 0.4 mIU/L TSH spiked with CG, signal increase over TSH alone; capture: row antibody; detection conjugate: 5409
Luteinizing Hormone (LH) [11] = biological target: Luteinizing Hormone (LH) (UniProt P01215); test: i-STAT sandwich, 0.4 mIU/L TSH spiked with LH, signal increase over TSH alone; capture: row antibody; detection conjugate: 5409
[12] = biological target: Thyroid Stimulating Hormone (TSH) (UniProt P01215); test: FRET competition on Alexa-488-labelled antigen (taken as TSH); excess unlabelled antibody first; competitor: BHQ-labelled M4
[13] = biological target: Follicle Stimulating Hormone (FSH) (UniProt P01215); test: i-STAT sandwich, 0.4 mIU/L TSH spiked with FSH, signal increase over TSH alone; capture: row antibody; detection conjugate: 5409
[14] = biological target: Thyroid Stimulating Hormone (TSH) (UniProt P01215); test: FRET competition on Alexa-488-labelled antigen (taken as TSH); excess unlabelled antibody first; competitor: BHQ-labelled 414B
[15] = biological target: Thyroid Stimulating Hormone (TSH) (UniProt P01215); test: FRET competition on Alexa-488-labelled antigen (taken as TSH); excess unlabelled antibody first; competitor: BHQ-labelled 5409
[16] = biological target: Thyroid Stimulating Hormone (TSH) (UniProt P01215); test: FRET competition on Alexa-488-labelled antigen (taken as TSH); excess unlabelled antibody first; competitor: BHQ-labelled T25C
[17] = biological target: Thyroid Stimulating Hormone (TSH) (UniProt P01215); test: FRET competition on Alexa-488-labelled antigen (taken as TSH); excess unlabelled antibody first; competitor: BHQ-labelled ME130
[18] = biological target: Thyroid Stimulating Hormone (TSH) (UniProt P01215); test: FRET competition on Alexa-488-labelled antigen (taken as TSH); excess unlabelled antibody first; competitor: BHQ-labelled TSH Ab 544
Luteinizing Hormone (LH) [19] = biological target: Luteinizing Hormone (LH) (UniProt P01215); test: i-STAT LH-detecting cartridge (LH 5304 capture beads, 414B conjugate); polystyrene LH 5304 scavenger beads in the sample; signal without beads = 100%
[20] = biological target: Thyroid Stimulating Hormone (TSH) (UniProt P01215); test: i-STAT sandwich immunoassay, recombinant TSH; row antibody on capture beads; detection ALP conjugate: T25C
[21] = biological target: Chorionic Gonadotropin (CG) (UniProt P01215); test: i-STAT sandwich, 0.4 mIU/L TSH spiked with CG, signal increase over TSH alone; capture: row antibody; detection conjugate: T25C
Luteinizing Hormone (LH) [22] = biological target: Luteinizing Hormone (LH) (UniProt P01215); test: i-STAT sandwich, 0.4 mIU/L TSH spiked with LH, signal increase over TSH alone; capture: row antibody; detection conjugate: T25C
[23] = biological target: Chorionic Gonadotropin (CG) (UniProt P01215); test: i-STAT sandwich, 0.4 mIU/L TSH spiked with CG, signal increase over TSH alone; capture: row antibody; detection conjugate: ME130
[24] = biological target: Follicle Stimulating Hormone (FSH) (UniProt P01215); test: i-STAT sandwich, 0.4 mIU/L TSH spiked with FSH, signal increase over TSH alone; capture: row antibody; detection conjugate: T25C
Luteinizing Hormone (LH) [25] = biological target: Luteinizing Hormone (LH) (UniProt P01215); test: i-STAT sandwich, 0.4 mIU/L TSH spiked with LH, signal increase over TSH alone; capture: row antibody; detection conjugate: ME130
[26] = biological target: Follicle Stimulating Hormone (FSH) (UniProt P01215); test: i-STAT sandwich, 0.4 mIU/L TSH spiked with FSH, signal increase over TSH alone; capture: row antibody; detection conjugate: ME130
[27] = biological target: Chorionic Gonadotropin (CG) (UniProt P01215); test: i-STAT sandwich, 0.4 mIU/L TSH spiked with CG, signal increase over TSH alone; capture: row antibody; detection conjugate: TSH Ab 544
Luteinizing Hormone (LH) [28] = biological target: Luteinizing Hormone (LH) (UniProt P01215); test: i-STAT sandwich, 0.4 mIU/L TSH spiked with LH, signal increase over TSH alone; capture: row antibody; detection conjugate: TSH Ab 544
[29] = biological target: Follicle Stimulating Hormone (FSH) (UniProt P01215); test: i-STAT sandwich, 0.4 mIU/L TSH spiked with FSH, signal increase over TSH alone; capture: row antibody; detection conjugate: TSH Ab 544
[30] = biological target: Chorionic Gonadotropin (CG) (UniProt P01215); test: i-STAT sandwich, 0.4 mIU/L TSH spiked with CG, signal increase over TSH alone; capture: row antibody; detection conjugate: 414B
Luteinizing Hormone (LH) [31] = biological target: Luteinizing Hormone (LH) (UniProt P01215); test: i-STAT sandwich, 0.4 mIU/L TSH spiked with LH, signal increase over TSH alone; capture: row antibody; detection conjugate: 414B
[32] = biological target: Follicle Stimulating Hormone (FSH) (UniProt P01215); test: i-STAT sandwich, 0.4 mIU/L TSH spiked with FSH, signal increase over TSH alone; capture: row antibody; detection conjugate: 414B

Substance	Kd [1] [nM]	Kd [2] [nM]	Kd (Luteinizing Hormone (LH) [3]) [nM]	Kd [4] [nM]	electrochemical current of sandwich immunoassay [5] [nA]	electrochemical current of sandwich immunoassay [7] [nA]	electrochemical current of sandwich immunoassay [8] [nA]	electrochemical current of sandwich immunoassay [9] [nA]	CG CR (%) [10] [%]	LH CR (%) (Luteinizing Hormone (LH) [11])	relative fluorescence [12]	FSH CR (%) [13] [%]	relative fluorescence [14]	relative fluorescence [15]	relative fluorescence [16]	relative fluorescence [17]	relative fluorescence [18]	electrochemical current of sandwich immunoassay [20] [nA]	other results
signaling mouse monoclonal antibody Fitzgerald Cat#10-T25C	40	300	35	0.08	40.9	49.7	0.68	0.83	13.7	9.89	0.92	6.25	0.97	0.95	1	0.97	0.97		electrochemical current of sandwich immunoassay [6]: 0.82 nA
Biospacific LH 5304 monoclonal antibody (mus beta-LH, Catalog #5304 SP-5)																			signal remaining after scavenger beads (%) (Luteinizing Hormone (LH) [19]): 4%
Seradyn anti-alpha-LH monoclonal antibody (Seradyn, Cat#MIT0414B)	0.05	0.1	0.05	0.04	41.3	40.3		10.2	84.6	348	0.75	260	1	0.81	0.76	0.86	0.83		CG CR (%) [27]: 39.2%; LH CR (%) (Luteinizing Hormone (LH) [28]): 467%; FSH CR (%) [29]: 219%
TSH Antibody 544 (Abbott Diagnostics Division)	210	1000	1000	1.31	0.11	7.98	34.9				0.92		0.89	0.96	0.71	0.72	1	22.4	electrochemical current of sandwich immunoassay [6]: 25 nA; CG CR (%) [30]: 117%; LH CR (%) (Luteinizing Hormone (LH) [31]): 11.8%; FSH CR (%) [32]: 7.15%

More lines, main results first:

Kd [1] [nM]	Kd [2] [nM]	Kd (Luteinizing Hormone (LH) [3]) [nM]	Kd [4] [nM]	electrochemical current of sandwich immunoassay [5] [nA]	electrochemical current of sandwich immunoassay [7] [nA]	electrochemical current of sandwich immunoassay [8] [nA]	electrochemical current of sandwich immunoassay [9] [nA]	CG CR (%) [10] [%]	LH CR (%) (Luteinizing Hormone (LH) [11])	relative fluorescence [12]	FSH CR (%) [13] [%]	relative fluorescence [14]	relative fluorescence [15]	relative fluorescence [16]	relative fluorescence [17]	relative fluorescence [18]	electrochemical current of sandwich immunoassay [20] [nA]	Substance	other results
45	70	54	0.04	50.5	54.7		10.8	11.8	11.1	0.77	3.9	0.99	0.82	0.88	1	0.82	-0.1	AbCAM ME-130 mouse monoclonal antibody	
500	1000	1000	0.1	15.2		53.6	1.41			0.9		0.88	1	0.78	0.78	0.93	34.6	TSH capture mouse monoclonal antibody Biospacific Cat#5409 SPTNE-5	CG CR (%) [21]: 0.96%; LH CR (%) (Luteinizing Hormone (LH) [22]): 3.76%; CG CR (%) [23]: 0.78%; FSH CR (%) [24]: 0.65%; LH CR (%) (Luteinizing Hormone (LH) [25]): 10.1%; FSH CR (%) [26]: 2.43%
554	210	300	0.18		20.7	39.9	0			1		0.9	0.94	0.74	0.76	0.98	22.5	Fitzgerald 10C-CR2151M4 mouse monoclonal antibody	
